Article PMC3994028

Biological target: non-muscle myosin IIB (NM IIB) (rat (endogenous in hippocampal neurons of Sprague-Dawley rats and in PC12)) (UniProt Q9JLT0)
Assay: proximity ligation; Duolink in situ PLA on fixed, permeabilised cultured hippocampal neurons (growth cones); primary antibodies against βPIX (or kalirin) and NM IIB, or βPIX and GIT; with or without 50 µM BBS for 15 or 30 min

Sequence of UniProt Q9JLT0 (Q9JLT0 whole entry): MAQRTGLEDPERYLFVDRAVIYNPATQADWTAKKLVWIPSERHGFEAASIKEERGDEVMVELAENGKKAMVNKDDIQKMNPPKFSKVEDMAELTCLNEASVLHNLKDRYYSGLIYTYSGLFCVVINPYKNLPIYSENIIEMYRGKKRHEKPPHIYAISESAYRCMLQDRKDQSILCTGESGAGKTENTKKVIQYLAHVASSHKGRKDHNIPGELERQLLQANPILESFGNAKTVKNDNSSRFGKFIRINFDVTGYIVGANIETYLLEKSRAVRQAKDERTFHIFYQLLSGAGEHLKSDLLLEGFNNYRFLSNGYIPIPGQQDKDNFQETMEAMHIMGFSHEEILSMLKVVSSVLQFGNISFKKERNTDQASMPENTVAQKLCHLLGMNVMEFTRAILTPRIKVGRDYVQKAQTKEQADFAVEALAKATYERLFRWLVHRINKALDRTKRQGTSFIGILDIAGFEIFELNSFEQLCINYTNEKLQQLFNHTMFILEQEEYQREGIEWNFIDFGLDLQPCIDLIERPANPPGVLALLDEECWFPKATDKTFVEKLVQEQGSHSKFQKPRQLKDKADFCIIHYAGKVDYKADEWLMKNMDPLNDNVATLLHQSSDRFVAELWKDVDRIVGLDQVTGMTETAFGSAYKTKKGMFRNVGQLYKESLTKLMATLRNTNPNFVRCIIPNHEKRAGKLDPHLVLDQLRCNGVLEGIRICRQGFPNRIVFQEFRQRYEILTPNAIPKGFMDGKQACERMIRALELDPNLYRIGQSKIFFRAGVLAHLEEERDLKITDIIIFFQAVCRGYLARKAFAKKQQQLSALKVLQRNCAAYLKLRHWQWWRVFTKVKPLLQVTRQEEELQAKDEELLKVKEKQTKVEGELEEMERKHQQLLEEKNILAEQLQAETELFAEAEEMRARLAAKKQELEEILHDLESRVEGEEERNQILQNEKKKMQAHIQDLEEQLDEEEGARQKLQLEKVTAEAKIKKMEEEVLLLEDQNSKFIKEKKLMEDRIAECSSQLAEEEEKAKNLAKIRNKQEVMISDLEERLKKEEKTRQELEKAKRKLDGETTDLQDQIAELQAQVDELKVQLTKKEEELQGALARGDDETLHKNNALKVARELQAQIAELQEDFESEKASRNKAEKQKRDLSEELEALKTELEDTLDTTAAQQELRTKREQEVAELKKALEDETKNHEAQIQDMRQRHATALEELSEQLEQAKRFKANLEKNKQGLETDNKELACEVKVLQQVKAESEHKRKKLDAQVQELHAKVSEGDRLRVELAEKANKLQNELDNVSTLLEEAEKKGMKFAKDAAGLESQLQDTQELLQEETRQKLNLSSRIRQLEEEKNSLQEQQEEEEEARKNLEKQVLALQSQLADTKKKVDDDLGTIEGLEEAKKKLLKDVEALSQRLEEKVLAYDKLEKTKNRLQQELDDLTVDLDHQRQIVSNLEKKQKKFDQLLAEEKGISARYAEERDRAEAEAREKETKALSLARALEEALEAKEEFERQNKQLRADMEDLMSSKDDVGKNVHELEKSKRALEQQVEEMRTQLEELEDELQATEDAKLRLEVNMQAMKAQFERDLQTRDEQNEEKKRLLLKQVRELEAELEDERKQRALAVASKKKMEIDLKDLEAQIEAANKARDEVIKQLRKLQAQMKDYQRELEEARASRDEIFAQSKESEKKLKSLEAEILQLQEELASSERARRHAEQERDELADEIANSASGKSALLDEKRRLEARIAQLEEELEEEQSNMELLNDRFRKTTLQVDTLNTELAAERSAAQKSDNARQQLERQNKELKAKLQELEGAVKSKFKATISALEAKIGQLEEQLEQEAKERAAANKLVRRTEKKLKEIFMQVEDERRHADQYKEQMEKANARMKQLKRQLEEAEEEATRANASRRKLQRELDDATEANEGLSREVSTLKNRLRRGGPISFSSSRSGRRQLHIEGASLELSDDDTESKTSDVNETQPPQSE

Q: “βPIX (endogenous, hippocampal neurons) (from UniProt O55043 1-646) (natural protein)” was tested. Which PLA fluorescence intensity in the actin-positive area 30 min after BBS, percent of untreated growth cones (% of untreated) did it give?
A: Its PLA fluorescence intensity in the actin-positive area 30 min after BBS, percent of untreated growth cones (% of untreated) is 51.
